Molecular target: Aar-MBP fusion protein (E. coli (EAEC 042))
Experiment: SPR

B1: AggR-MBP fusion protein (natural protein)
chain: MKLKQNIEKEIIKINNIRIHQYTVLYTSNCTIDVYTKEGSNTYLRNELIFLERGINISVRLQKKKSTVNPFIAIRLSSDTLRRLKDALMIIYGISKVDACSCPNWSKGIIVADADDSVLDTFKSIDHNDDSRITSDLIYLISKIENNRKIIESIYISAVSFFSDKVRNTIEKDLSKRWTLAIIADEFNVSEITIRKRLESEYITFNQILMQSRMSKAALLLLDNSYQISQISNMIGFSSTSYFIRLFVKHFGITPKQFLTYFKSQ
B1 showed a Kd of 20 to 40 nM.
